Values of other authors as cited in patent US5866683A, “Isoelectric point markers for isoelectric focusing with fluorescence detection” (Laboratory of Molecular Biophotonics, priority 1995, dated 1999).
Values joined by “and” are separate entries in the source; they are usually repeats but may differ in a detail not shown here. Equal entries are not always repeated.

Conditions: unlabeled protein

| Molecule | pI (known) of conventional protein pI marker |
| --- | --- |
| equine myoglobin (protein, UniProt P68082 2-154, looked up, conventional protein pI marker) Myoglobin: GLSDGEWQQVLNVWGKVEADIAGHGQEVLIRLFTGHPETLEKFDKFKHLKTEAEMKASEDLKKHGTVVLTALGGILKKKGHHEAELKPLAQSHATKHKIPIKYLEFISDAIIHVLHSKHPGDFGADAQGAMTKALELFRNDIAAKYKELGFQG | 7.00 |
| lentilectin (protein, UniProt P02870 31-210; P02870 218-269, looked up, conventional protein pI marker, three pI's) Lectin beta chain: TETTSFSITKFSPDQKNLIFQGDGYTTKGKLTLTKAVKSTVGRALYSTPIHIWDRDTGNVANFVTSFTFVIDAPSSYNVADEFTFFIAPVDTKPQTGGGYLGVFNSKEYDKTSQTVAVEFDTFYNAAWDPSNKERHIGIDVNSIKSVNTKSWNLQNGERANVVIAFNAATNVLTVTLTYP Lectin alpha chain: VTSYTLNEVVPLKDVVPEWVRIGFSATTGAEFAAHEVHSWSFHSELGGTSSS | 7.80 and 8.00 and 8.20 |
| trypsinogen (protein, UniProt P00760 18-246, looked up, pro-form, conventional protein pI marker) pro-form: VDDDDKIVGGYTCGANTVPYQVSLNSGYHFCGGSLINSQWVVSAAHCYKSGIQVRLGEDNINVVEGNEQFISASKSIVHPSYNSNTLNNDIMLIKLKSAASLNSRVASISLPTSCASAGTQCLISGWGNTKSSGTSYPDVLKCLKAPILSDSSCKSAYPGQITSNMFCAGYLEGGKDSCQGDSGGPVVCSGKLQGIVSWGSGCAQKNKPGVYTKVCNYVSWIKQTIASN | 9.30 |
| amyloglucosidase (protein, UniProt P69328 25-640, looked up) Glucoamylase: ATLDSWLSNEATVARTAILNNIGADGAWVSGADSGIVVASPSTDNPDYFYTWTRDSGLVLKTLVDLFRNGDTSLLSTIENYISAQAIVQGISNPSGDLSSGAGLGEPKFNVDETAYTGSWGRPQRDGPALRATAMIGFGQWLLDNGYTSTATDIVWPLVRNDLSYVAQYWNQTGYDLWEEVNGSSFFTIAVQHRALVEGSAFATAVGSSCSWCDSQAPEILCYLQSFWTGSFILANFDSSRSGKDANTLLGSIHTFDPEAACDDSTFQPCSPRALANHKEVVDSFRSIYTLNDGLSDSEAVAVGRYPEDTYYNGNPWFLCTLAAAEQLYDALYQWDKQGSLEVTDVSLDFFKALYSDAATGTYSSSSSTYSSIVDAVKTFADGFVSIVETHAASNGSMSEQYDKSDGEQLSARDLTWSYAALLTANNRRNSVVPASWGETSASSVPGTCAATSAIGTYSSVTVTSWPSIVATGGTTTTATPTGSGSVTSTSKTTATASKTSTSTSSTSCTTPTAVAVTFDLTATTTYGENIYLVGSISQLGDWETSDGIALSADKYTSSDPLWYVTVTLPAGESFEYKFIRIESDDSVEWESDPNREYTVPQACGTSTATVTDTWR | 3.50 |
